Results on 10 molecules are retold here after patent publication US20230248800A1 (PHARMAIN, published 2023).

B1: Mpa-Tyr-Phe-Gln-Asn-Cys-Pro-Lys(X)a-Gly-NH2; (X)a = (Gly)9 [SEQ ID NO. 23] (peptide)
peptide: XFQNCPXG
modifications: Mpa at position 1, disulfide bond between Mpa and Cys; (Gly)9 on the side chain of Lys 8; C-terminal amide
B2: Mpa-Tyr-Phe-Gln-Asn-Cys-Pro-Lys(X)a-Gly-NH2; (X)a = (Gly)6 [SEQ ID NO. 20] (peptide)
peptide: XFQNCPXG
modifications: Mpa at position 1, disulfide bond between Mpa and Cys; (Gly)6 on the side chain of Lys 8; C-terminal amide
B3: Mpa-Tyr-Phe-Hgn-Asn-Cys-Pro-Lys(X)a-Gly-NH2; (X)a = (Gly)9-Ac [SEQ ID NO. 26] (peptide)
peptide: XFXNCPXG
modifications: Mpa at position 1, disulfide bond between Mpa and Cys; Hgn at position 4; (Gly)9-Ac on the side chain of Lys 8; C-terminal amide
B4: Mpa-Tyr-Phe-Hgn-Asn-Cys-Pro-Lys(X)a-Gly-NH2; (X)a = Dap [SEQ ID NO. 29] (peptide)
peptide: XFXNCPXG
modifications: Mpa at position 1, disulfide bond between Mpa and Cys; Hgn at position 4; Dap on the side chain of Lys 8; C-terminal amide
B5: Mpa-Tyr-Phe-Hgn-Asn-Cys-Pro-Lys(X)a-Gly-NH2; (X)a = Ac [SEQ ID NO. 28] (peptide)
peptide: XFXNCPXG
modifications: Mpa at position 1, disulfide bond between Mpa and Cys; Hgn at position 4; acetyl (Ac) on the side chain of Lys 8; C-terminal amide
B6: Mpa-Tyr-Phe-Hgn-Asn-Cys-Pro-Lys(12-aminododecanoic acid)-Gly-NH2 [SEQ ID NO. 19] (peptide)
peptide: XFXNCPXG
modifications: Mpa at position 1, disulfide bond between Mpa and Cys; Hgn at position 4; 12-aminododecanoic acid on the side chain of Lys 8; C-terminal amide
B7: Mpa-Tyr-Phe-Hgn-Asn-Cys-Pro-Lys(X)a-Gly-NH2; (X)a = Lauric acid [SEQ ID NO. 27] (peptide)
peptide: XFXNCPXG
modifications: Mpa at position 1, disulfide bond between Mpa and Cys; Hgn at position 4; lauric acid on the side chain of Lys 8; C-terminal amide
B8: Mpa-Tyr-Phe-Hgn-Asn-Cys-Pro-Lys-Gly-NH2 [SEQ ID NO. 25] (peptide)
peptide: XFXNCPKG
modifications: Mpa (mercaptopropionic acid) at position 1, disulfide bond between Mpa and Cys; Hgn (homoglutamine) at position 4; C-terminal amide
B9: Mpa-Tyr-Phe-Hgn-Asn-Cys-Pro-dLys-Gly-NH2 (note: dLys = D-Lys) [SEQ ID NO. 18] (peptide)
peptide: XFXNCPKG
modifications: Mpa at position 1, disulfide bond between Mpa and Cys; Hgn at position 4; D-Lys at position 8; C-terminal amide
B10: Mpa-Tyr-Phe-Hgn-Asn-Cys-Pro-Dap-Gly-NH2 [SEQ ID NO. 17] (peptide)
peptide: XFXNCPXG
modifications: Mpa at position 1, disulfide bond between Mpa and Cys; Hgn at position 4; Dap at position 8; C-terminal amide

The target of the first test is T1, human V1a receptor (human, UniProt P37288 1-418). Put plainly: cell-based or functional assay.
T1 sequence (P37288 whole entry): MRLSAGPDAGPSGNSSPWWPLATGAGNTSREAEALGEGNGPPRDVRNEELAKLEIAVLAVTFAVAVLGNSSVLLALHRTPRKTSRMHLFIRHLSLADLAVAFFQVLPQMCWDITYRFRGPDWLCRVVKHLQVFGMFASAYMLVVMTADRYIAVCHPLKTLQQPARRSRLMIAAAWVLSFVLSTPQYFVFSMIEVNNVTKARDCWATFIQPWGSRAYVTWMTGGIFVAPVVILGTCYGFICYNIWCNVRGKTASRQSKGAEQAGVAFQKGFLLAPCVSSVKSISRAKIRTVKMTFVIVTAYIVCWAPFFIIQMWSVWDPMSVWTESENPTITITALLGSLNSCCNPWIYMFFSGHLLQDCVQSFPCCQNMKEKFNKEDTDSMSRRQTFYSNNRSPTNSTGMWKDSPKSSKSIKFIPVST
As for B1, the “Estimated V1a EC50 (calcium flux)” value is 12.6 nM.

With B2, the “Estimated V1a EC50 (calcium flux)” value is 27.3 nM.

The next test deals with T1, human V1a receptor. Briefly: cell-based or functional assay. This is another data set of the same source.
B3: the “Estimated V1a EC50 (calcium flux)” value is greater than 10000 nM and the “V1a Highest agonist effect (% of AVP)” value was 40 % of AVP.

For B4, the “Estimated V1a EC50 (calcium flux)” value is 1340 nM and the “V1a Highest agonist effect (% of AVP)” value was 7.5 % of AVP.

As to B5, the “Estimated V1a EC50 (calcium flux)” value was greater than 10000 nM and the “V1a Highest agonist effect (% of AVP)” value was 30 % of AVP.

Regarding B6, the “Estimated V1a EC50 (calcium flux)” value was greater than 10000 nM and the “V1a Highest agonist effect (% of AVP)” value was 2.5 % of AVP.

For the molecule B7, the “Estimated V1a EC50 (calcium flux)” value was greater than 10000 nM.

Turning to B8, the “Estimated V1a EC50 (calcium flux)” value was 5.2 nM and the “V1a Highest agonist effect (% of AVP)” value was 42.8 % of AVP.

In the case of B9, the “Estimated V1a EC50 (calcium flux)” value is greater than 10000 nM and the “V1a Highest agonist effect (% of AVP)” value is 0.2 % of AVP.

Regarding B10, the “Estimated V1a EC50 (calcium flux)” value is greater than 10000 nM and the “V1a Highest agonist effect (% of AVP)” value was 3.5 % of AVP.
